The values below come from paper PMC6559660.

Assay [1] concerns the target N-acetylneuraminate lyase from Aliivibrio salmonicida LFI1238, construct with TEV-cleavable N-terminal His6-tag (Aliivibrio salmonicida LFI1238). Briefly: native gel or EMSA; native PAGE of purified AsNAL (2.75 ug) beside NativeMark unstained protein standard. For orientation: In EMSA bound probe runs differently from free probe, usually more slowly.
Assay [2] shares this target. Kind of assay: SEC; Superdex 200 prep grade HiLoad 16/60 in 50 mM Tris-HCl pH 7.5, 500 mM NaCl, 5 mM beta-ME, 10% glycerol; room temperature. A general note: SEC sorts molecules by how far they enter the pores of the column.
Assay [3] has as its target N-acetylneuraminate lyase from Aliivibrio salmonicida LFI1238, construct with C-terminal His6-tag (Aliivibrio salmonicida LFI1238). Kind of assay: crystal structure; crystals from 25% PEG 1.5 K and 20% glycerol; space group I222, one molecule in the asymmetric unit; tetramer generated by crystallographic symmetry; 1.65 A.

In general, stoichiometry N refers to a count of units in the complex or per binding partner.

Consider “N-acetylneuraminate lyase from Aliivibrio salmonicida LFI1238, construct with TEV-cleavable N-terminal His6-tag (enzyme)”, for which the stoichiometry N in assay [1] and in assay [2] was 4 in each case.
Substance “N-acetylneuraminate lyase from Aliivibrio salmonicida LFI1238, construct with C-terminal His6-tag (enzyme)” displayed a stoichiometry N in assay [3] of 4.
